Here are results for one substance from PMC12955871, “Structure‐Guided Engineering of a Promiscuous O‐Methyltransferase for a SAM Regeneration Biocatalysis Platform of Methylated Pharmaceuticals” (Advanced Science, 2025).

What all share (assay): HPLC product formation, Michaelis-Menten fit
Assay type in all cases: biochemical, Selaginella moellendorffii

The test system of data set [1] is O=c1c(O)c(-c2ccc(O)c(O)c2)oc2cc(O)cc(O)c12. The note with it: 1.6 mM SAM, pH 8.0, 37 °C.
For a further data set, the system named is CC(=O)c1ccc(O)c(O)c1O. The note with it: 1.6 mM SAM, pH 8.0, 37 °C, no added SAH, crystal structure is the SAH ternary complex.
A further data set relates to O=c1ccc2cc3ccoc3c(O)c2o1. The note with it: 1.6 mM SAM, pH 8.0, 37 °C.

In the case of SmOMT (Selaginella moellendorffii), the figures for the Michaelis-Menten constant (Km) (in data set [1]; in the data set with CC(=O)c1ccc(O)c(O)c1O; with O=c1ccc2cc3ccoc3c(O)c2o1) were 585.1 µM, 51.7 µM and 225.4 µM, respectively.
